Laboratory results taken from US20180195056.

B1: xlAtg4B^14-384 (protein)
chain: ADTPDFPETAEPVWVLGRKYSALTEKEQLLNDITSRLWFTYRRNFQAIGGTGPTSDTGWGCMLRCGQMIFAQALICRHVGRDWRWDKQKPKGEYLNILTAFLDKKDSYYSIHQIAQMGVGEGKYIGQWYGPNTVAQVLRKLAVFDQWSSIAVHIAMDNTVVVDEIRRLCRAGSGESSDAGALSNGYTGDSDPSCAQWKPLVLLIPLRLGLSEINEAYIETLKHCFMVPQSLGVIGGRPNSAHYFIGYVGDELIYLDPHTTQLSVEPSDCSFIEDESFHCQHPPCRMHVSEIDPSIAVGFFCSSQEDFEDWCQHIKKLSLSGGALPMFEVVDQLPLHLSNPDVLNLTPDSSDADRLDRFFDSEDEEFEILSL
B2: full-length xlAtg4B (Xenopus laevis Atg4B, residues 1-384) (protein)
chain: MDAATLTYDTLRFADTPDFPETAEPVWVLGRKYSALTEKEQLLNDITSRLWFTYRRNFQAIGGTGPTSDTGWGCMLRCGQMIFAQALICRHVGRDWRWDKQKPKGEYLNILTAFLDKKDSYYSIHQIAQMGVGEGKYIGQWYGPNTVAQVLRKLAVFDQWSSIAVHIAMDNTVVVDEIRRLCRAGSGESSDAGALSNGYTGDSDPSCAQWKPLVLLIPLRLGLSEINEAYIETLKHCFMVPQSLGVIGGRPNSAHYFIGYVGDELIYLDPHTTQLSVEPSDCSFIEDESFHCQHPPCRMHVSEIDPSIAVGFFCSSQEDFEDWCQHIKKLSLSGGALPMFEVVDQLPLHLSNPDVLNLTPDSSDADRLDRFFDSEDEEFEILSL
B3: xlAtg4B^25-384 (protein)
chain: PVWVLGRKYSALTEKEQLLNDITSRLWFTYRRNFQAIGGTGPTSDTGWGCMLRCGQMIFAQALICRHVGRDWRWDKQKPKGEYLNILTAFLDKKDSYYSIHQIAQMGVGEGKYIGQWYGPNTVAQVLRKLAVFDQWSSIAVHIAMDNTVVVDEIRRLCRAGSGESSDAGALSNGYTGDSDPSCAQWKPLVLLIPLRLGLSEINEAYIETLKHCFMVPQSLGVIGGRPNSAHYFIGYVGDELIYLDPHTTQLSVEPSDCSFIEDESFHCQHPPCRMHVSEIDPSIAVGFFCSSQEDFEDWCQHIKKLSLSGGALPMFEVVDQLPLHLSNPDVLNLTPDSSDADRLDRFFDSEDEEFEILSL
B4: xlAtg4B^25-345 (protein)
chain: PVWVLGRKYSALTEKEQLLNDITSRLWFTYRRNFQAIGGTGPTSDTGWGCMLRCGQMIFAQALICRHVGRDWRWDKQKPKGEYLNILTAFLDKKDSYYSIHQIAQMGVGEGKYIGQWYGPNTVAQVLRKLAVFDQWSSIAVHIAMDNTVVVDEIRRLCRAGSGESSDAGALSNGYTGDSDPSCAQWKPLVLLIPLRLGLSEINEAYIETLKHCFMVPQSLGVIGGRPNSAHYFIGYVGDELIYLDPHTTQLSVEPSDCSFIEDESFHCQHPPCRMHVSEIDPSIAVGFFCSSQEDFEDWCQHIKKLSLSGGALPMFEVVDQ

| Protein | salt sensitivity of substrate cleavage (500 nM protease, 1 h, 0° C.) (His14-xlGATE16-MBP) | substrate excess cleaved to near completion within 1 h at 25° C. (His14-xlGATE16-MBP) | cleavage efficiency at limiting substrate concentration (constant protease:substrate ratio 1:1000, 1 h, 0° C.) (His14-xlLC3B-MBP) | protease concentration sufficient to cleave 100 µM substrate within 1 h at 0° C. (His14-xlLC3B-MBP) | salt sensitivity of substrate cleavage (500 nM protease, 1 h, 0° C.) (His14-xlLC3B-MBP) | substrate cleavage (20 µM protease, 100 µM substrate, 3 h, 25° C.) (His14-xlLC3B-MBP) | substrate excess cleaved to near completion within 1 h at 37° C. (His14-xlLC3B-MBP) | temperature needed for near-complete cleavage of a 6600-fold substrate excess in 1 h (His14-xlGATE16-MBP) | cleavage efficiency at limiting substrate concentration (constant protease:substrate ratio 1:2000, 1 h, 0° C.) (His14-xlGATE16-MBP) | percent of a 6600-fold substrate excess cleaved in 1 h at 37° C. (His14-xlGATE16-MBP) | protease concentration needed to cleave 100 µM substrate within 2 h at 0° C. (His14-xlGATE16-MBP) | protease required for substrate processing at 0° C., against the other protease fragments (His14-xlGATE16-MBP) | protease required for substrate processing at 25° C., against the other protease fragments (His14-xlGATE16-MBP) | temperature dependence of substrate cleavage (His14-xlLC3B-MBP) | time for efficient cleavage (>95%) at 500 nM protease, 0° C., against full-length or N-terminally truncated enzymes (His14-xlLC3B-MBP) |
| --- | --- | --- | --- | --- | --- | --- | --- | --- | --- | --- | --- | --- | --- | --- | --- |
| B1 | also full-length or N-terminally truncated xlAtg4B fragments showed a reduced cleavage activity at ≥1 M NaCl | near-complete cleavage of a 6600-fold substrate excess was reached for the two N-terminally shortened protease fragments already at 25 °C | full-length xlAtg4B and both N-terminally shortened fragments could cleave the xlLC3B substrate rather efficiently even at substrate concentrations as low as 3-10 µM | 1 µM of each protease fragment was sufficient to cleave 100 µM of substrate within 1 h | xlLC3B processing by full-length xlAtg4B or its N-terminally truncated fragments was remarkably insensitive towards NaCl concentrations up to 1.5 M | xlLC3B was nearly exclusively recognized by xlAtg4B^14-384 | Within 1 h at 37° C., all three enzymes were able to cleave a >3000-fold excess of the xlLC3B substrate to near completion |  |  |  |  |  |  |  |  |
| B2 | also full-length or N-terminally truncated xlAtg4B fragments showed a reduced cleavage activity at ≥1 M NaCl |  | full-length xlAtg4B and both N-terminally shortened fragments could cleave the xlLC3B substrate rather efficiently even at substrate concentrations as low as 3-10 µM | 1 µM of each protease fragment was sufficient to cleave 100 µM of substrate within 1 h | xlLC3B processing by full-length xlAtg4B or its N-terminally truncated fragments was remarkably insensitive towards NaCl concentrations up to 1.5 M |  | Within 1 h at 37° C., all three enzymes were able to cleave a >3000-fold excess of the xlLC3B substrate to near completion | the full-length enzyme required 37 °C for a similarly efficient cleavage |  |  |  |  |  |  |  |
| B3 | also full-length or N-terminally truncated xlAtg4B fragments showed a reduced cleavage activity at ≥1 M NaCl | near-complete cleavage of a 6600-fold substrate excess was reached for the two N-terminally shortened protease fragments already at 25 °C | full-length xlAtg4B and both N-terminally shortened fragments could cleave the xlLC3B substrate rather efficiently even at substrate concentrations as low as 3-10 µM | 1 µM of each protease fragment was sufficient to cleave 100 µM of substrate within 1 h | xlLC3B processing by full-length xlAtg4B or its N-terminally truncated fragments was remarkably insensitive towards NaCl concentrations up to 1.5 M |  | Within 1 h at 37° C., all three enzymes were able to cleave a >3000-fold excess of the xlLC3B substrate to near completion |  |  |  |  |  |  |  |  |
| B4 | The weak activity of xlAtg4B^25-345 on xlGATE16 was further reduced at salt concentrations ≥0.5 M |  | the C-terminally truncated protease showed significantly reduced cleavage already at 100-30 µM substrate concentration | 1 µM of each protease fragment was sufficient to cleave 100 µM of substrate within 1 h | Deletion of the protease's C-terminus, however, rendered the reaction salt sensitive at NaCl concentrations ≥0.5 M |  |  |  | Even more drastic effects were observed when cleaving xlGATE16-MBP with xlAtg4B^25-345 (FIG. 6A, right lower panel). Here, processing was poor even at 300 µM substrate concentration | could only cleave ≈30-4 0% of a 6600-fold substrate excess even at 37 °C | 500 nM of xlAtg4B^25-345 were insufficient to cleave 100 µM of xlGATE16 substrate within 2 h at 0 °C | ≈10-fold and ≈30-fold more xlAtg4B^25-345 was required for xlGATE16 processing as compared to the other protease fragments at 0 °C and 25° C., respectively | ≈10-fold and ≈30-fold more xlAtg4B^25-345 was required for xlGATE16 processing as compared to the other protease fragments at 0 °C and 25° C., respectively | The boost of xlLC3B substrate processing at higher temperatures, however, was much weaker for this protease fragment | efficient cleavage (i.e. >95% cleavage) of the xlLC3B substrate required twice as long when using xlAtg4B^25-345 instead of the full-length or just N-terminally truncated xlAtg4B enzymes |
